The text below walks through data of patent US20220162320A1 (published 2022).

The target of test [1] is T1, CD3 (reagent of the affinity experiments of Example 18) (UniProt P07766 23-126).
T1 chain: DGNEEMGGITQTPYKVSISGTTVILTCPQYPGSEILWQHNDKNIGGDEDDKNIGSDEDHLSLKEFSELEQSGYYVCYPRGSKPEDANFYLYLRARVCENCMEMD
Put plainly: BLI. A general note: BLI is a label-free optical method that tracks binding on a fibre tip over time.

Test [2] deals with T1, CD3 (reagent of the affinity …). Put plainly: BLI; IgG analyte, apparent KD (bivalent), avid.
Test [3] deals with T2, HLA-PEPTIDE target G2: HLA-A*01:01_…, recombinant soluble complex (human, enzymatically biotinylated (BirA)). Put plainly: BLI.
The target in test [4] is T1, CD3 (reagent of the affinity …). Put plainly: BLI.
In test [5] the target is T2, HLA-PEPTIDE target G2: HLA-A*01:01_…, …. Put plainly: BLI. This is another data set of the same source.
The target of test [6] is T1, CD3 (reagent of the affinity …). Put plainly: BLI; avid; apparent KD (bivalent).
In test [7] the target is T2, HLA-PEPTIDE target G2: HLA-A*01:01_…, …. Put plainly: BLI; avid; apparent KD (bivalent).
Test [8] deals with T1, CD3 (reagent of the affinity …). Put plainly: BLI.
Test [9] concerns the target T2, HLA-PEPTIDE target G2: HLA-A*01:01_…, …. Put plainly: BLI. This is another data set of the same source.
Test [10] has the same target. Put plainly: BLI; apparent KD (bivalent), avid.
For test [11], the target named is T1, CD3 (reagent of the affinity …). Put plainly: BLI.
Test [12] deals with T2, HLA-PEPTIDE target G2: HLA-A*01:01_…, …. Put plainly: BLI. This is another data set of the same source.
The target in test [13] is T1, CD3 (reagent of the affinity …). Put plainly: BLI.
Test [14] addresses T2, HLA-PEPTIDE target G2: HLA-A*01:01_…, …. Put plainly: BLI. The source holds these as a separate data set.
The target of test [15] is T1, CD3 (reagent of the affinity …). Put plainly: BLI; apparent KD (bivalent), avid.
The target in test [16] is T2, HLA-PEPTIDE target G2: HLA-A*01:01_…, …. Put plainly: BLI; apparent KD (bivalent), avid. This is another data set of the same source.
In test [17] the target is T1, CD3 (reagent of the affinity …). Put plainly: BLI.
For test [18], the target named is T2, HLA-PEPTIDE target G2: HLA-A*01:01_…, …. Put plainly: BLI. The source holds these as a separate data set.

B1: hOKT3 IgG (antibody, V domains shown)
VH: QVQLVQSGAEVKKPGASVKVSCKASGYTFTRYTMHWVRQAPGQGLEWMGYINPSRGYTNYNQKFKDRVTLTTDKSSSTAYMELSSLRSEDTAVYYCARYYDDHYSLDYWGQGTLVTVSS
VL: DIQMTQSPSSLSASVGDRVTITCSASSSVSYMNWYQQKPGKAPKRLIYDTSKLASGVPSRFSGSGSGTDFTLTISSLQPEDFATYYCQQWSSNPFTFGQGTKLEIKR
On to B1, for which the Kd in [1] was 268 nM; in test [2] it was 8.44 nM.

B2: 3-G2(1H11)-OKT3 (bispecific antibody)
chain: not shown
heavy: not shown
light: QIVLTQSPAIMSASPGEKVTMTCSASSSVSYMNWYQQKSGTSPKRWIYDTSKLASGVPAHFRGSGSGTSYSLTISGMEAEDAATYYCQQWSSNPFTFGSGTKLEINRTVAAPSVFIFPPSDEQLKSGTASVVCLLNNFYPREAKVQWKVDNALQSGNSQESVTEQDSKDSTYSLSSTLTLSKADYEKHKVYACEVTHQGLSSPVTKSFNRGEC
As for B2, the Kd in test [3] came to 24.8 nM.

B3: 3-G2(1H11)-hOKT3 (bispecific antibody)
chain: not shown
heavy: QVQLVQSGAEVKKPGASVKVSCKASGYTFTRYTMHWVRQAPGQGLEWMGYINPSRGYTNYNQKFKDRVTLTTDKSSSTAYMELSSLRSEDTAVYYCARYYDDHYSLDYWGQGTLVTVSSASTKGPSVFPLAPSSKSTSGGTAALGCLVKDYFPEPVTVSWNSGALTSGVHTFPAVLQSSGLYSLSSVVTVPSSSLGTQTYICNVNHKPSNTKVDKRVEPKSCDKTHTCPPCPAPELLGGPSVFLFPPKPKDTLMISRTPEVTCVVVDVSHEDPEVKFNWYVDGVEVHNAKTKPREEQYQSTYRVVSVLTVLHQDWLNGKEYKCKVSNKALPAPIEKTISKAKGQPREPQVCTLPPSREEMTKNQVSLSCAVKGFYPSDIAVEWESNGQPENNYKTTPPVLDSDGSFFLVSKLTVDKSRWQQGNVFSCSVMHEALHNRFTQKSLSLSPGK
light: DIQMTQSPSSLSASVGDRVTITCSASSSVSYMNWYQQKPGKAPKRLIYDTSKLASGVPSRFSGSGSGTDFTLTISSLQPEDFATYYCQQWSSNPFTFGQGTKLEIKRTVAAPSVFIFPPSDEQLKSGTASVVCLLNNFYPREAKVQWKVDNALQSGNSQESVTEQDSKDSTYSLSSTLTLSKADYEKHKVYACEVTHQGLSSPVTKSFNRGEC
B3: the results for the Kd in test [4] and in test [5] were 168 nM and 421 nM, respectively.

B4: 3-OKT3-G2(1H11) (antibody)
chain 1: not shown
chain 2: not shown
chain 3: MDMRVPAQLLGLLLLWLPGARCQIVLTQSPAIMSASPGEKVTMTCSASSSVSYMNWYQQKSGTSPKRWIYDTSKLASGVPAHFRGSGSGTSYSLTISGMEAEDAATYYCQQWSSNPFTFGSGTKLEINRTVAAPSVFIFPPSDEQLKSGTASVVCLLNNFYPREAKVQWKVDNALQSGNSQESVTEQDSKDSTYSLSSTLTLSKADYEKHKVYACEVTHQGLSSPVTKSFNRGEC
For B4, in test [3], the Kd amounted to 23.8 nM.

B5: 6-G2(1H11)-αCD3 (bispecific antibody)
heavy: not shown
light: QAVVTQEPSLTVSPGGTVTLTCGSSTGAVTTSNYANWVQQKPGKSPRGLIGGTNKRAPGVPARFSGSLLGGKAALTISGAQPEDEADYYCALWYSNHWVFGGGTKLTVLRTVAAPSVFIFPPSDEQLKSGTASVVCLLNNFYPREAKVQWKVDNALQSGNSQESVTEQDSKDSTYSLSSTLTLSKADYEKHKVYACEVTHQGLSSPVTKSFNRGEC
Take B5: the Kd in test [6] came out at 0.828 nM; in test [7], 4.53 nM; in [8] it was 5.95 nM; in test [9] it was 215 nM.

B6: 4-G2(1H11)-αCD3 (bispecific antibody)
chain: not shown
heavy: QVQLVQSGAEVKKPGASVKVSCKASGYTFTNYYMHWVRQAPGQGLEWMGMINPSGGGTSYAQKFQGRVTMTRDTSTSTVYMELSSLRSEDTAVYYCARGNPWELRLDYWGQGTLVTVSSGGGGSGGGGSGGGGSGGGGSDIQMTQSPSSLSASVGDRVTITCQASQDISNYLNWYQQKPGKAPKLLIYAASSLQSGVPSRFSGSGSGTDFTLTISSLQPEDFATYYCQQYYSYPFTFGPGTKVDIKGGGGSGGGGSEVQLVESGGGLVQPGGSLRLSCAASGFTFSTYAMNWVRQAPGKGLEWVGRIRSKYNNYATYYADSVKGRFTISRDDSKNTLYLQMNSLRAEDTAVYYCVRHGNFGDSYVSWFAYWGQGTLVTVSSASTKGPSVFPLAPSSKSTSGGTAALGCLVKDYFPEPVTVSWNSGALTSGVHTFPAVLQSSGLYSLSSVVTVPSSSLGTQTYICNVNHKPSNTKVDKRVEPKSCDKTHTCPPCPAPELLGGPSVFLFPPKPKDTLMISRTPEVTCVVVDVSHEDPEVKFNWYVDGVEVHNAKTKPREEQYQSTYRVVSVLTVLHQDWLNGKEYKCKVSNKALPAPIEKTISKAKGQPREPQVCTLPPSREEMTKNQVSLSCAVKGFYPSDIAVEWESNGQPENNYKTTPPVLDSDGSFFLVSKLTVDKSRWQQGNVFSCSVMHEALHNRFTQKSLSLSPGK
light: QAVVTQEPSLTVSPGGTVTLTCGSSTGAVTTSNYANWVQQKPGKSPRGLIGGTNKRAPGVPARFSGSLLGGKAALTISGAQPEDEADYYCALWYSNHWVFGGGTKLTVLRTVAAPSVFIFPPSDEQLKSGTASVVCLLNNFYPREAKVQWKVDNALQSGNSQESVTEQDSKDSTYSLSSTLTLSKADYEKHKVYACEVTHQGLSSPVTKSFNRGEC
As to B6, the Kd came out at 2.95 nM in [10], 11.6 nM in [11] and 543 nM in test [12].

B7: 5-G2(1H11)-αCD3 (bispecific antibody)
chain: not shown
heavy: QVQLVQSGAEVKKPGASVKVSCKASGYTFTNYYMHWVRQAPGQGLEWMGMINPSGGGTSYAQKFQGRVTMTRDTSTSTVYMELSSLRSEDTAVYYCARGNPWELRLDYWGQGTLVTVSSGGGGSGGGGSGGGGSGGGGSDIQMTQSPSSLSASVGDRVTITCQASQDISNYLNWYQQKPGKAPKLLIYAASSLQSGVPSRFSGSGSGTDFTLTISSLQPEDFATYYCQQYYSYPFTFGPGTKVDIKGGGGSGGGGSEVQLVESGGGLVQPGGSLRLSCAASGFTFSTYAMNWVRQAPGKGLEWVGRIRSKYNNYATYYADSVKGRFTISRDDSKNTLYLQMNSLRAEDTAVYYCVRHGNFGDSYVSWFAYWGQGTLVTVSSASTKGPSVFPLAPSSKSTSGGTAALGCLVKDYFPEPVTVSWNSGALTSGVHTFPAVLQSSGLYSLSSVVTVPSSSLGTQTYICNVNHKPSNTKVDKRVEPKSCDKTHTCPPCPAPELLGGPSVFLFPPKPKDTLMISRTPEVTCVVVDVSHEDPEVKFNWYVDGVEVHNAKTKPREEQYQSTYRVVSVLTVLHQDWLNGKEYKCKVSNKALPAPIEKTISKAKGQPREPQVCTLPPSREEMTKNQVSLSCAVKGFYPSDIAVEWESNGQPENNYKTTPPVLDSDGSFFLVSKLTVDKSRWQQGNVFSCSVMHEALHNRFTQKSLSLSPGK
light: QAVVTQEPSLTVSPGGTVTLTCGSSTGAVTTSNYANWVQQKPGKSPRGLIGGTNKRAPGVPARFSGSLLGGKAALTISGAQPEDEADYYCALWYSNHWVFGGGTKLTVLRTVAAPSVFIFPPSDEQLKSGTASVVCLLNNFYPREAKVQWKVDNALQSGNSQESVTEQDSKDSTYSLSSTLTLSKADYEKHKVYACEVTHQGLSSPVTKSFNRGEC
For the molecule B7, the figures for the Kd in test [13] and in test [14] were 20 nM and 28.8 nM, respectively.

B8: 2-G2(1H11)-αCD3 (bispecific antibody)
heavy: not shown
light: QAVVTQEPSLTVSPGGTVTLTCGSSTGAVTTSNYANWVQQKPGKSPRGLIGGTNKRAPGVPARFSGSLLGGKAALTISGAQPEDEADYYCALWYSNHWVFGGGTKLTVLRTVAAPSVFIFPPSDEQLKSGTASVVCLLNNFYPREAKVQWKVDNALQSGNSQESVTEQDSKDSTYSLSSTLTLSKADYEKHKVYACEVTHQGLSSPVTKSFNRGEC
For B8, the Kd in test [15] was found to be 0.696 nM; in test [16], 3.41 nM; in [17], 6.02 nM; in [18], 82.2 nM.
